{"source": "patent US9999679B2", "about": "“Aminofucoidan as a vector for fibrinolysis in thrombotic diseases” (INSTITUT NATIONAL DE LA SANTE ET DE LA RECHERCHE MEDICALE, priority 2013, dated 2018)", "molecules": {"B1": {"name": "t-PA: Single-chain recombinant tissue plasminogen activator, secreted by CHO cells transfected with human t-PA cDNA (American diagnostica) (protein, listed as Homo sapiens)", "chain": "MDAMKRGLCCVLLLCGAVFVSPSQEIHARFRRGARSYQVICRDEKTQMIYQQHQSWLRPVLRSNRVEYCWCNSGRAQCHSVPVKSCSEPRCFNGGTCQQALYFSDFVCQCPEGFAGKCCEIDTRATCYEDQGISYRGTWSTAESGAECTNWNSSALAQKPYSGRRPDAIRLGLGNHNYCRNPDRDSKPWCYVFKAGKYSSEFCSTPACSEGNSDCYFGNGSAYRGTHSLTESGASCLPWNSMILIGKVYTAQNPSAQALGLGKHNYCRNPDGDAKPWCHVLKNRRLTWEYCDVPSCSTCGLRQYSQPQFRIKGGLFADIASHPWQAAIFAKHRRSPGERFLCGGILISSCWILSAAHCFQERFPPHHLTVILGRTYRVVPGEEEQKFEVEKYIVHKEFDDDTYDNDIALLQLKSDSSRCAQESSVVRTVCLPPADLQLPDWTECELSGYGKHEALSPFYSERLKEAHVRLYPSSRCTSQHLLNRTVTDNMLCAGDTRSGGPQANLHDACQGDSGGPLVCLNDGRMTLVGIISWGLGCGQKDVPGVYTKVTNYLDWIRDNMRP", "modifications": "single-chain recombinant; /mol_type=“protein” /organism=“Homo sapiens”"}}, "key": {"[1]": {"tested_on": "platelet-poor thrombus", "assay": "Ex vivo fibrinolysis of platelet-poor plasma clots (fluorescence release, clot weight loss)", "parameters": "species or system Human", "experimental": "(§1) Human platelet-rich and -poor plasma (PRP and PPP) were obtained from citrated blood after two centrifugation steps: at 120 g for 15 minutes followed by a second centrifugation step at 1200 g for 12 min. PRP was adjusted to 3×10^8 platelets per mL with poor platelet plasma (PPP) and supplemented with 75 μg/mL of fluorescein isothiocyanate-fibrinogen. Clot formation was induced by adding 10 mmol/L CaCl2 in glass tubes and incubated for 1 hour at 37° C. After retraction, clots were washed in Hank's buffer (Sigma), rapidly dryed on an absorbent paper and weighed. To assess fibrinolysis, PRP or PPP clots were incubated in Hanks' buffer containing the vectorized t-PA complexes (corresponding to 10 UI of t-PA, or 1.72 μg/mL) for 1 h at room temperature. Clots were transferred in a new eppendorf containing 500 μl of Hank's buffer supplemented with 1 μM of human plasminogen. The kinetic of fibrinolysis was evaluated by measuring the release of fluorescence from the clot to the supernatant with a spectrofluorimeter (485/520 nm). […]\n(§2) Aminofucoidans were used in variables molecular ratio to t-PA (10 UI (corresponding to 1.72 μg/ml): the 1/10 ratio was used for mono-amine fucoidans and 1/5 for poly-amine fucoidans. Evaluation criteria were the initial lysis kinetic (appearance of fluorescence in supernatant) and the final thrombus weight loss at 17H/37° C. incubation. […]"}, "[2]": {"tested_on": "mesenteric thrombi", "assay": "FeCl3-induced mesenteric vessel thrombosis, intravital imaging of thrombolysis", "format": "in vivo", "conditions": "mice, intravenous; 1 hour following FeCl3-induced injury (~45 min following treatment)", "description": "The group has recently published the ability of intravital microscopy to follow the lysis of thrombus in vivo. Thus, validation of t-PA vectorization by amino-fucoidans with intravital microscopy has been carried out according to the protocols described in Boulaftali et al. (Boulaftali et al., 2011, Platelet protease nexin-1, a serpin that strongly influences fibrinolysis and thrombolysis. Circulation; Boulaftali et al., 2012, The mouse dorsal skinfold chamber as a model for the study of thrombolysis by intravital microscopy. Thromb Haemost).\nThe thrombus is induced by local application of iron oxide on exposed vessels in mice. Fluorescent t-PA or a mixture of amino-fucoidans and t-PA are intravenously injected after iron oxide local application The fluorescence of t-PA and thrombus lysis were followed by intravital transillumination of the mesenteric tissue.\nMore precisely, after anesthesia (100 mg/kg ketamine, 10 mg/kg xylazine) and laparotomy, mouse mesenteric vessels were exposed for induction of thrombosis and video-microscopic intravital observation. […] Platelet deposition and thrombus growth were monitored for 15 minutes following injury and fluorescent t-PA±DiLysine-fucoidan was then injected intravenously to thrombolysis of the partially occlusive-formed thrombi. […]"}, "[3]": {"conditions": "Product No 173 from American diagnostic; cited from earlier work"}, "[4]": {"tested_on": "thrombus performed in total blood, including Red Blood Cells", "assay": "Rotative thromboelastography (Rotem) lysis of thrombus in total blood", "conditions": "plasma PAI-1 present, ratio (t-PA/fuco) 1/5 or 1/10", "description": "Thromboelastography experiments have been carried out on a rotative thromboelastograph (Rotem®) as described in Boulaftali et al. (Boulaftali Y, Ho Tin Noe B, Pena A, Loyau S, Venisse L, Francois D, Richard B, Arocas V, Collet J P, Jandrot-Perrus M, Bouton M C. PLatelet Protease Nexin-1, a Serpin that Strongly Influences Fibrinolysis and Thrombolysis. Circulation. 2011; 123:1326-1334) and Mallet et al. (Mallet S V, Cox D J A. Thromboelastograph Analysis. British J of anaest. 1992; 69:307-313).\nIn a third series of in vitro experiments, the ability of aminofucoidans to accelerate the lysis of a thrombus performed in total blood, including Red Blood Cells, has been tested with rotative thromboelastography (Rotem®). In this experiment dilysine-fucoidan vectorized t-PA, in a ratio (t-PA/fuco) of 1/5 or 1/10 increased the thrombus lysis to 75% as compared to t-PA alone (55%). In this experiment, the plasma PAI-1 was present."}, "[5]": {"tested_on": "platelet-rich thrombus", "assay": "Ex vivo fibrinolysis of platelet-rich plasma clots (fluorescence release, clot weight loss)", "parameters": "species or system Human", "conditions": "17H/37° C. incubation; p<0.01; FIG. 1", "experimental": "as §1, §2"}}}
{"molecule": "B1", "values": [{"measurement": "thrombi weight loss at 17H", "setting": "[1]", "value": 97, "unit": "%"}, {"measurement": "vessel occlusion / perfusion of injured vessels", "setting": "[2]", "value": "occlusive thrombosis of injured vessels had occurred in all 3 mice"}, {"measurement": "specific activity", "setting": "[3]", "value": "approximately 580 000 UI/mg"}, {"measurement": "thrombus lysis", "setting": "[4]", "value": 55, "unit": "%"}, {"measurement": "loss of platelet-rich thrombus weight", "setting": "[5]", "value": 30, "unit": "%"}]}
